# Assay results from paper PMC11898529, “The LSmAD Domain of Ataxin-2 Modulates the Structure and RNA Binding of Its Preceding LSm Domain”.
# B1: AC-rich RNA (structured_RNA)
# RNA: GGCCUUCGGGCCAAACCCCCACCCCCACCCCCACCCCCACCCCCUCGAUCCGGUUCGCCGGAUCCAAAUCGGGCUUCGGUCCGGUUC
# B2: AU-rich RNA (structured_RNA)
# RNA: GGCCUUCGGGCCAAAUUUUUAUUUUUAUUUUUAUUUUUAUUUUUUCGAUCCGGUUCGCCGGAUCCAAAUCGGGCUUCGGUCCGGUUC
# B3: RE5 (structured_RNA)
# RNA: GGCCUUCGGGCCAAACCGUACACACACACAUGGCUAGACGGUAUGUUUGUUUGUUGUUUGUUUGUUGUUUGUUUGUGUUUGACGUAGGAAUUUAAUUUAAUUUAAUUUAAUUUAAUUUAAUUUACAGGCUACGUAGGCCAGGACCCCUCUUUUCUCCCCAGGACCCCUCUUUUCUCCCCAUUCACCCUCCCUUCUCCAGAGCGAUUCGAUCCGGUUCGCCGGAUCCAAAUCGGGCUUCGGUCCGGUUC
# B4: RE1 (structured_RNA)
# RNA: GGCCUUCGGGCCAAAUUUAUUUAUUUAUUUAUUUAGCUGACGAUCCACACACACAGGAAUCGACUCUGUUUGUUUGUGUUUGUUUGUACUGAAUUGGCACUUUUCCCCUUUUCCCUUUCUGGACUGGCAUCGAUCCGGUUCGCCGGAUCCAAAUCGGGCUUCGGUCCGGUUC
# B5: RE2 (structured_RNA)
# RNA: GGCCUUCGGGCCAAAUUUAUUUAUUUAUUUAGCGAGAAGUUGUUUGUUUGUGUUUGACGUCUGUGUGGACGUCACACACAGGAUGCAUCGGACCUUUUCCCCUUUUCCCUUUUCGAUCCGGUUCGCCGGAUCCAAAUCGGGCUUCGGUCCGGUUC
# Key:
# LSmAD domain of Ataxin-2 = LSmAD domain of Ataxin-2 (UniProt Q99700 353-475); assay: EMSA; protein/RNA molar ratio up to 6; 1 mM MgCl2; EMSA: 10 mM Tris pH 8.0, 25 mM KCl, 10 mM NaCl, 1 mM MgCl2, 10% glycerol, 0.5 mM DTT, 20 min, 25 C; SEC and SHAPE buffers not in material; conditions: protein: recombinant, tags: His tag, single strand with flanking hairpins
# Chain of LSmAD domain of Ataxin-2 (Q99700 353-475): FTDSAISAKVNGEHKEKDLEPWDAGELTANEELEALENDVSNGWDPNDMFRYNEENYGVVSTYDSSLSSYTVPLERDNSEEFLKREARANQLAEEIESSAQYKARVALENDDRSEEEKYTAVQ
# LSm domain of Ataxin-2 [1] = biological target: T1, LSm domain of Ataxin-2 (UniProt Q99700 242-344); assay: size-exclusion chromatography; EMSA: 10 mM Tris pH 8.0, 25 mM KCl, 10 mM NaCl, 1 mM MgCl2, 10% glycerol, 0.5 mM DTT, 20 min, 25 C; SEC and SHAPE buffers not in material; conditions: protein: recombinant, tags: His tag (pET-22b(+), NdeI/XhoI), single strand with flanking hairpins
# T1 sequence (Q99700 242-344): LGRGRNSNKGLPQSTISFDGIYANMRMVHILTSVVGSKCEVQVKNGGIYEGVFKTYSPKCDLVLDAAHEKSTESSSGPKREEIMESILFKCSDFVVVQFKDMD
# [2] = biological target: T2, LSm-LSmAD M2 mutant of Ataxin-2 (UniProt Q99700 242-475, S315Q;S317T); assay: EMSA; fully shifted at protein/RNA molar ratio 20; moderate affinity; 1 mM MgCl2; EMSA: 10 mM Tris pH 8.0, 25 mM KCl, 10 mM NaCl, 1 mM MgCl2, 10% glycerol, 0.5 mM DTT, 20 min, 25 C; SEC and SHAPE buffers not in material; conditions: protein: recombinant; single strand with flanking hairpins
# T2 sequence (Q99700 242-475 S315Q/S317T): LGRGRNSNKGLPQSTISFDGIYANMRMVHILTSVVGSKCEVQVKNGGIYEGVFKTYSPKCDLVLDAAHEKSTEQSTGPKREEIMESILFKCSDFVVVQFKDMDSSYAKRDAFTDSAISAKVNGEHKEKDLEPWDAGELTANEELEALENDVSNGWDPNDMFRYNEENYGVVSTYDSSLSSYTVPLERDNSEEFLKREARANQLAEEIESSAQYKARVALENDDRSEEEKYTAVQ
# [3] = biological target: T2, LSm-LSmAD M2 mutant of Ataxin-2; assay: SHAPE footprinting; GU-, AU-, CU-rich protected (CU most); CA-rich unchanged; EMSA: 10 mM Tris pH 8.0, 25 mM KCl, 10 mM NaCl, 1 mM MgCl2, 10% glycerol, 0.5 mM DTT, 20 min, 25 C; SEC and SHAPE buffers not in material; conditions: protein: recombinant
# LSm domain of Ataxin-2 [4] = biological target: T1, LSm domain of Ataxin-2; assay: as above; conditions: protein: recombinant; tags: His tag (pET-22b(+), NdeI/XhoI)
# LSm domain of Ataxin-2 [5] = biological target: T1, LSm domain of Ataxin-2; assay: SHAPE footprinting; AU- and GU-rich protected (AU more than with M2); CA-rich unchanged; EMSA: 10 mM Tris pH 8.0, 25 mM KCl, 10 mM NaCl, 1 mM MgCl2, 10% glycerol, 0.5 mM DTT, 20 min, 25 C; SEC and SHAPE buffers not in material; conditions: protein: recombinant; tags: His tag (pET-22b(+), NdeI/XhoI)
# [6] = biological target: T2, LSm-LSmAD M2 mutant of Ataxin-2; assay: SHAPE footprinting; AU- and GU-rich protected (GU more than with LSm); CA-rich unchanged; EMSA: 10 mM Tris pH 8.0, 25 mM KCl, 10 mM NaCl, 1 mM MgCl2, 10% glycerol, 0.5 mM DTT, 20 min, 25 C; SEC and SHAPE buffers not in material; conditions: protein: recombinant
# LSm domain of Ataxin-2 [7] = biological target: T1, LSm domain of Ataxin-2; assay: SHAPE footprinting; AU-, GU-, CU-rich protected, less than with M2; CA-rich unchanged; EMSA: 10 mM Tris pH 8.0, 25 mM KCl, 10 mM NaCl, 1 mM MgCl2, 10% glycerol, 0.5 mM DTT, 20 min, 25 C; SEC and SHAPE buffers not in material; conditions: protein: recombinant; tags: His tag (pET-22b(+), NdeI/XhoI)
# [8] = biological target: T2, LSm-LSmAD M2 mutant of Ataxin-2; assay: SHAPE footprinting; AU-, GU-, CU-rich protected, more than with LSm; CA-rich unchanged; EMSA: 10 mM Tris pH 8.0, 25 mM KCl, 10 mM NaCl, 1 mM MgCl2, 10% glycerol, 0.5 mM DTT, 20 min, 25 C; SEC and SHAPE buffers not in material; conditions: protein: recombinant
binder,measurement,setting,value
B1,binding result,LSmAD domain of Ataxin-2; two conformers in gel,no binding
same,binding result,LSm domain of Ataxin-2 [1]; two conformers in gel,no binding
B2,binding result,LSmAD domain of Ataxin-2,no binding
same,binding result,[2],binds
same,binding result,LSm domain of Ataxin-2 [1],binds
B3,binding result,[3],binds
same,binding result,LSm domain of Ataxin-2 [4],binds
B4,binding result,LSm domain of Ataxin-2 [5],binds
same,binding result,[6],binds
B5,binding result,LSm domain of Ataxin-2 [7],binds
same,binding result,[8],binds
